The source of these data is patent publication US20110091463A1 (AbbVie / Abbott, published 2011).

Experiment [1] has as its target NGF (Neuroscreen-1 bioassay). The experiment can be described thus: cell-based or functional assay.
A further experiment has as its target T1, IL-6R on TF-1 cells (UniProt P08887 20-468, limits assumed).
T1 sequence (looked up): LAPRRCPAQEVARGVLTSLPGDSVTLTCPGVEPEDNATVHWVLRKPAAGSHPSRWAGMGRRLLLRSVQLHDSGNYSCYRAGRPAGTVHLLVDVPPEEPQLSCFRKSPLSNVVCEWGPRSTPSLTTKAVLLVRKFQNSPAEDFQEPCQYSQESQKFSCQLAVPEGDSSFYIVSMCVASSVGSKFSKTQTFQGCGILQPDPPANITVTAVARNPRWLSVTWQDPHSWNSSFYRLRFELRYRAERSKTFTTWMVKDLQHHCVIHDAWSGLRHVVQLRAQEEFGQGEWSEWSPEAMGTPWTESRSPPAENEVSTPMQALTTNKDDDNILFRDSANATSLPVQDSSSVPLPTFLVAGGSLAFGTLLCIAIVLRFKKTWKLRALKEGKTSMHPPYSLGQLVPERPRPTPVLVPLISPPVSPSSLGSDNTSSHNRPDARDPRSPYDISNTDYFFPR
The experiment in a line: cell-based or functional assay.

Experiment [2] has as its target T2, Recombinant Human IL-6 sR (human, UniProt P08887 20-358, limits assumed).
T2 construct: Bought soluble receptor ('sR'); also called IL-6R
T2 sequence (looked up): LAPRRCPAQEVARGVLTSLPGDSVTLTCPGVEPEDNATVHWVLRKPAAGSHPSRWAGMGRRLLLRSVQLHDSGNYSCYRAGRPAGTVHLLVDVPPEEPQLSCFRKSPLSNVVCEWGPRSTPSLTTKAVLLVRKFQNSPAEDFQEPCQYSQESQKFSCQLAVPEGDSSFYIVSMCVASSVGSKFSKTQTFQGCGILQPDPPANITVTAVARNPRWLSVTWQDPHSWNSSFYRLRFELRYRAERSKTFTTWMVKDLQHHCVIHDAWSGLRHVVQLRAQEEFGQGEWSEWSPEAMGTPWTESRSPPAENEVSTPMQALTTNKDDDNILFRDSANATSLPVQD
The experiment in a line: SPR (Biacore), antibody captured on chip, antigen injected, 25 C. On the procedure: (§1) The BIACORE assay (Biacore, Inc, Piscataway, N.J.) determines the affinity of antibodies or DVD-Ig with kinetic measurements of on-rate and off-rate constants. Binding of antibodies or DVD-Ig to a target antigen (for example, a purified recombinant target antigen) is determined by surface plasmon resonance-based measurements with a Biacore® 1000 or 3000 instrument (Biacore® AB, Uppsala, Sweden) using running HBS-EP (10 mM HEPES [pH 7.4], 150 mM NaCl, 3 mM EDTA, and 0.005% surfactant P20) at 25° C. All chemicals are obtained from Biacore® AB (Uppsala, Sweden) or otherwise from a different source as described in the text. For example, approximately 5000 RU of goat anti-mouse IgG, (Fcγ), fragment specific polyclonal antibody (Pierce Biotechnology Inc, Rockford, Ill.) diluted in 10 mM sodium acetate (pH 4.5) is directly immobilized across a CM5 research grade biosensor chip using a standard amine coupling kit according to manufacturer's instructions and procedures at 25 μg/ml. Unreacted moieties on the biosensor surface are blocked with ethanolamine. Modified carboxymethyl dextran surface in flowcell 2 and 4 is used as a reaction surface. Unmodified carboxymethyl dextran without goat anti-mouse IgG in flow cell 1 and 3 is used as the reference surface. For kinetic analysis, rate equations derived from the 1:1 Langmuir binding model are fitted simultaneously to association and dissociation phases of all eight injections (using global fit analysis) with the use of Biaevaluation 4.0.1 software. Purified antibodies or DVD-Ig are diluted in HEPES-buffered saline for capture across goat anti-mouse IgG specific reaction surfaces. Antibodies or DVD-Ig to be captured as a ligand (25 μg/ml) are injected over reaction matrices at a flow rate of 5 μl/min. The association and dissociation rate constants, kₒₙ (M⁻¹ s⁻¹) and koff (s⁻¹) are determined under a continuous flow rate of 25 μl/min. Rate constants are derived by making kinetic binding measurements at different antigen concentrations ranging from 10-200 nM. The equilibrium dissociation constant (M) of the reaction between antibodies or DVD-Igs and the target antigen is then calculated from the kinetic rate constants by the following formula: KD=koff/kₒₙ. Binding is recorded as a function of time and kinetic rate constants are calculated.

The next experiment addresses T3, Recombinant Human β-NGF (human, UniProt P01138 122-241).
T3 construct: Bought reagent
The experiment is described as above. Here is the method:
as §1

The target in a further experiment is IL-1β (MRC5 bioassay). The experiment in a line: cell-based or functional assay.
Another experiment addresses T4, Recombinant Human IL-1β (human, UniProt P01584 117-269).
T4 construct: Bought reagent; also called IL-1b; Il-1b
The experiment in a line: SPR (Biacore), DVD-Ig captured on chip, antigen injected, 25 C. Here is the method: as §1, with “Antibodies or DVD-Ig to be captured as a ligand (25 μg/ml) are injected over reaction matrices at a flow rate of 5 μl/min.” left out, “Rate constants are derived by making kinetic binding measurements at different antigen concentrations ranging from 10-200 nM.” left out

Changes are numbered by the printed parent chain. Some results are limits rather than exact numbers.

Sequence of NGF (Neuroscreen-1 bioassay) (P01138 122-241): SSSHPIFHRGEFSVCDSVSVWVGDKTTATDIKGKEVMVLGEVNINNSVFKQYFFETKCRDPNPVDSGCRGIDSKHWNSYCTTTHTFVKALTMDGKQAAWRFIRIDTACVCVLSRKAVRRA
T3 sequence (P01138 122-241 limits assumed): as the sequence (P01138 122-241) above
Sequence of IL-1β (MRC5 bioassay) (P01584 117-269): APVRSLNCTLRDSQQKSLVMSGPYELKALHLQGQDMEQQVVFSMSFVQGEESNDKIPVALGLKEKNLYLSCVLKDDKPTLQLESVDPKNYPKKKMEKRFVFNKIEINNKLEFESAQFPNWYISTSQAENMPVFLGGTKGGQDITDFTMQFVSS

B1: DVD933 (bispecific antibody, human IgG1, kappa)
heavy: not shown
light: DIQMTQSPSSLSASVGDRVTITCRASEDIYNALAWYQQKPGKAPKLLIYNTDTLHTGVPSRFSGSGSGTDYTLTISSLQPEDFATYFCQHYFHYPRTFGQGTKVEIKRTVAAPDVLMTQTPLSLPVTPGEPASISCTSSQNIVHSNGNTYLEWYLQKPGQSPQLLIYKVSNRFSGVPDRFSGSGSGTDFTLKISRVEAEDVGVYYCFQVSHVPYTFGGGTKVEIKRTVAAPSVFIFPPSDEQLKSGTASVVCLLNNFYPREAKVQWKVDNALQSGNSQESVTEQDSKDSTYSLSSTLTLSKADYEKHKVYACEVTHQGLSSPVTKSFNRGEC
Regarding B1, in experiment [1], the “N-Terminal VD NGF Inhibition Assay EC50 pM (ERK1/2 phosphorylation in Neuroscreen-1 cells)” value was 49 pM.

B2: AB054 (antibody, V domains shown)
VH: EVQLQESGPGLVRPSQTLSLTCTVSGYSITSDHAWSWVRQPPGRGLEWIGYISYSGITTYNPSLKSRVTMLRDTSKNQFSLRLSSVTAADTAVYYCARSLARTTAMDYWGQGSLVTVSS
VL: DIQMTQSPSSLSASVGDRVTITCRASQDISSYLNWYQQKPGKAPKLLIYYTSRLHSGVPSRFSGSGSGTDFTFTISSLQPEDIATYYCQQGNTLPYTFGQGTKVEIKR
notes: Parent antibody; also called IL-6R parent antibody; AB054VH
Usually Kd stands for the free concentration of one partner at which half of the binding sites on the other are occupied at equilibrium, for simple one-to-one binding. What is called koff is the rate constant with which the complex falls apart. One may read the kon as the rate constant with which the complex forms. Regarding B2, in the experiment with IL-6R on TF-1 cells, the “IL-6 Inhibition Assay EC50 µM (IL-6 induced pSTAT3 in TF-1 cells)” value was 0.07 µM. Further, in experiment [2], the equilibrium dissociation constant (Kd) is 0.614 nM, the off-rate constant (koff) came out at 0.000206 s⁻¹ and the kon was found to be 336000 M⁻¹ s⁻¹.

B3: AB020 (antibody, V domains shown)
VH: QVQLQESGPGLVKPSETLSLTCTVSGFSLIGYDLNWIRQPPGKGLEWIGIIWGDGTTDYNSAVKSRVTISKDTSKNQFSLKLSSVTAADTAVYYCARGGYWYATSYYFDYWGQGTLVTVSS
VL: B2 VL with D28S, S31N, Y32N, L54F, G91E, N92H, V104L
notes: Parent antibody; also called AB020VH
For the molecule B3, in the experiment with Recombinant Human β-NGF, the Kd amounted to 6.73 pM, the koff is 4.08e-06 s⁻¹ and the association rate constant (kon) was 606000 M⁻¹ s⁻¹.

B4: DVD949 (bispecific antibody, human IgG1, kappa)
heavy: not shown
light: DIQMTQSPSSLSASVGDRVTITCRASEDIYNALAWYQQKPGKAPKLLIYNTDTLHTGVPSRFSGSGSGTDYTLTISSLQPEDFATYFCQHYFHYPRTFGQGTKVEIKRTVAAPDIQMTQSPSSLSASVGDRVTITCRASGNIHNYLTWYQQTPGKAPKLLIYNAKTLADGVPSRFSGSGSGTDYTFTISSLQPEDIATYYCQHFWSIPYTFGQGTKLQITTVAAPSVFIFPPSDEQLKSGTASVVCLLNNFYPREAKVQWKVDNALQSGNSQESVTEQDSKDSTYSLSSTLTLSKADYEKHKVYACEVTHQGLSSPVTKSFNRGEC
As for B4, in experiment [1], the “N-Terminal VD NGF Inhibition Assay EC50 pM (ERK1/2 phosphorylation in Neuroscreen-1 cells)” value turned out to be 55 pM. Besides, the “N-Terminal VD IL-1β Neutralization Assay EC50 nM (IL-8 release by MRC5 cells)” value with IL-1β (MRC5 bioassay) worked out at 0.148 nM.

B5: DVD950 (bispecific antibody, human IgG1, kappa)
heavy: not shown
light: DIQMTQSPSSLSASVGDRVTITCRASGNIHNYLTWYQQTPGKAPKLLIYNAKTLADGVPSRFSGSGSGTDYTFTISSLQPEDIATYYCQHFWSIPYTFGQGTKLQITTVAAPDIQMTQSPSSLSASVGDRVTITCRASEDIYNALAWYQQKPGKAPKLLIYNTDTLHTGVPSRFSGSGSGTDYTLTISSLQPEDFATYFCQHYFHYPRTFGQGTKVEIKRTVAAPSVFIFPPSDEQLKSGTASVVCLLNNFYPREAKVQWKVDNALQSGNSQESVTEQDSKDSTYSLSSTLTLSKADYEKHKVYACEVTHQGLSSPVTKSFNRGEC
notes: DVD-Ig; also called DVD950H; DVD950L
For the molecule B5, in the experiment with Recombinant Human IL-1β, the Kd came out at 0.495 nM, the koff came out at 0.000487 s⁻¹ and the on-rate (kon) came to 983000 M⁻¹ s⁻¹. Further, the “C-Terminal VD NGF Inhibition Assay EC50 pM (ERK1/2 phosphorylation in Neuroscreen-1 cells)” value in experiment [1] was determined as 316 pM. Also, the “C-Terminal VD IL-1β Neutralization Assay EC50 nM (IL-8 release by MRC5 cells)” value with IL-1β (MRC5 bioassay) came to 26 nM.

B6: DVD1207 (bispecific antibody, human IgG1, kappa)
heavy: not shown
light: DIQMTQSPSSLSASVGDRVTITCRASQDISSYLNWYQQKPGKAPKLLIYYTSRLHSGVPSRFSGSGSGTDFTFTISSLQPEDIATYYCQQGNTLPYTFGQGTKVEIKRTVAAPDIQMTQSPSSLSASVGDRVTITCRASEDIYNALAWYQQKPGKAPKLLIYNTDTLHTGVPSRFSGSGSGTDYTLTISSLQPEDFATYFCQHYFHYPRTFGQGTKVEIKRTVAAPSVFIFPPSDEQLKSGTASVVCLLNNFYPREAKVQWKVDNALQSGNSQESVTEQDSKDSTYSLSSTLTLSKADYEKHKVYACEVTHQGLSSPVTKSFNRGEC
For B6, the “N-Terminal VD IL-6 Inhibition Assay EC50 µM (IL-6 induced pSTAT3 in TF-1 cells)” value with IL-6R on TF-1 cells turned out to be 0.089 µM. For the same molecule, the “C-Terminal VD NGF Inhibition Assay EC50 pM (ERK1/2 phosphorylation in Neuroscreen-1 cells)” value in experiment [1] is above 5000 pM.

B7: DVD934 (bispecific antibody, human IgG1, kappa)
heavy: not shown
light: DVLMTQTPLSLPVTPGEPASISCTSSQNIVHSNGNTYLEWYLQKPGQSPQLLIYKVSNRFSGVPDRFSGSGSGTDFTLKISRVEAEDVGVYYCFQVSHVPYTFGGGTKVEIKRTVAAPDIQMTQSPSSLSASVGDRVTITCRASEDIYNALAWYQQKPGKAPKLLIYNTDTLHTGVPSRFSGSGSGTDYTLTISSLQPEDFATYFCQHYFHYPRTFGQGTKVEIKRTVAAPSVFIFPPSDEQLKSGTASVVCLLNNFYPREAKVQWKVDNALQSGNSQESVTEQDSKDSTYSLSSTLTLSKADYEKHKVYACEVTHQGLSSPVTKSFNRGEC
Consider B7, for which the “C-Terminal VD NGF Inhibition Assay EC50 pM (ERK1/2 phosphorylation in Neuroscreen-1 cells)” value in experiment [1] was above 5000 pM.
